{"source": "paper PMC12691606", "target": "RGNNV capsid protein (CP) of the virus (red-spotted grouper nervous necrosis virus (RGNNV))", "data": [{"binder": "His-EcCXCR4b recombinant protein (pET-32a-EcCXCR4b) (receptor) MSYYEHIVFDYDLNDTGSGSGSGDMGVDLQELCDMEHVITDELQQVFLPVVYALIFILGITGNGLVVIVLGCQRRSKCSLTDRYRLHLSAADLLFVLALPFWAVDAALADWRFGEVTCVGVNVIYTVNLYGSVLILAFISLDRYLAVVRATDTNTGELRQLLAHKLVYVGAWLPAGLLAVPDLIYARTQEGGEGATLCQRFYPADNGPIWVAVFHLQLVLVGLVIPGLVLLVCYCVIVTRLTRGPLGGQRQKRRAVRTTIALVLCFFVCWLPYGAGISVDALLRLEVLPRSCRLEAILGVWLAVAEPMAFAHCCLNPLLYAFLGAGFKSSARRALTLSRASSLKILPRRRPGASTTTESESSSLHSS", "values": [{"measurement": "survival rate of groupers over 14 days after injection of RGNNV pre-incubated with His-EcCXCR4b protein (6× His control: 23.3%)", "value": 73.3, "unit": "%"}]}]}
